T1: human IL-18BP (human, UniProt O95998 31-194)
T1 construct: UniProt printed as 095998; also called hIL-18BP
T1 sequence: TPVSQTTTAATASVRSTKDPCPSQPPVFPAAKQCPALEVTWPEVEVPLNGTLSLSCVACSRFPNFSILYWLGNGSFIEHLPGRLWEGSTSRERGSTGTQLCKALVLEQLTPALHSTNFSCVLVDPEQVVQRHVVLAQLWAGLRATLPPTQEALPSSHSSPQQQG

B1: SA301a HC-G55A (antibody, name in Kabat numbering, V domains shown)
VH: QVQLQESGPGLVKPSQTLSLTCTVSGYSITSDYNSHWIRQPPGKGLEWIGYIHYSASTNYNPSLKSRVTISRDTSKNQFSLKLSSVTAADTAVYYCARNYGSIYVNYFDYWGQGTLVTVSS
VL: EIVLTQSPATLSLSPGERATLSCSASSSVSYMYWYQQKPGQAPRPLIYRTSNLASGIPARFSGSGSGTDFTLTISSLEPEDFAVYYCQQYHSYPTFGGGTKVEIK
notes: IgG1 kappa
B2: SA301a HC-N58G (antibody, name in Kabat numbering, V domains shown)
VH: B1 VH with A56G, N59G
VL: B1 VL
notes: IgG1 kappa
B3: SA301a HC-G55Q (antibody, name in Kabat numbering, V domains shown)
VH: B1 VH with A56Q
VL: B1 VL
notes: IgG1 kappa
B4: SA301a HC-G55E (antibody, name in Kabat numbering, V domains shown)
VH: B1 VH with A56E
VL: B1 VL
notes: IgG1 kappa
B5: SA301a HC-G55T (antibody, name in Kabat numbering, V domains shown)
VH: B1 VH with A56T
VL: B1 VL
notes: IgG1 kappa
B6: SA301a HC-G55Y (antibody, name in Kabat numbering, V domains shown)
VH: B1 VH with A56Y
VL: B1 VL
notes: IgG1 kappa
B7: SA301a HC-G55R (antibody, name in Kabat numbering, V domains shown)
VH: B1 VH with A56R
VL: B1 VL
notes: IgG1 kappa
B8: SA301a HC-G55L (antibody, name in Kabat numbering, V domains shown)
VH: B1 VH with A56L
VL: B1 VL
notes: IgG1 kappa
B9: SA301a HC-G55S (antibody, name in Kabat numbering, V domains shown)
VH: B1 VH with A56S
VL: B1 VL
notes: IgG1 kappa
B10: SA301a HC-N58A (antibody, name in Kabat numbering, V domains shown)
VH: B1 VH with A56G, N59A
VL: B1 VL
notes: IgG1 kappa
B11: SA301a HC-G55M (antibody, name in Kabat numbering, V domains shown)
VH: B1 VH with A56M
VL: B1 VL
notes: IgG1 kappa
B12: SA301a HC-G55V (antibody, name in Kabat numbering, V domains shown)
VH: B1 VH with A56V
VL: B1 VL
notes: IgG1 kappa
B13: SA301a HC-G55H (antibody, name in Kabat numbering, V domains shown)
VH: B1 VH with A56H
VL: B1 VL
notes: IgG1 kappa
B14: SA301a HC-N58E (antibody, name in Kabat numbering, V domains shown)
VH: B1 VH with A56G, N59E
VL: B1 VL
notes: IgG1 kappa
B15: SA301a HC-G55D (antibody, name in Kabat numbering, V domains shown)
VH: B1 VH with A56D
VL: B1 VL
notes: IgG1 kappa
B16: SA301a HC-G55K (antibody, name in Kabat numbering, V domains shown)
VH: B1 VH with A56K
VL: B1 VL
notes: IgG1 kappa
B17: SA301a HC-G55F (antibody, name in Kabat numbering, V domains shown)
VH: B1 VH with A56F
VL: B1 VL
notes: IgG1 kappa
B18: SA301a HC-N58D (antibody, name in Kabat numbering, V domains shown)
VH: B1 VH with A56G, N59D
VL: B1 VL
notes: IgG1 kappa
B19: SA301a LC-Y94G (antibody, V domains shown)
VH: B1 VH with A56G
VL: B1 VL with Y93G
B20: SA301a LC-Y94V (antibody, V domains shown)
VH: B1 VH with A56G
VL: B1 VL with Y93V
B21: SA301a LC-Y94M (antibody, V domains shown)
VH: B1 VH with A56G
VL: B1 VL with Y93M
B22: SA301a LC-P95A (antibody, V domains shown)
VH: B1 VH with A56G
VL: B1 VL with P94A
B23: SA301a LC-P95F (antibody, V domains shown)
VH: B1 VH with A56G
VL: B1 VL with P94F
B24: SA301a LC-Y94F (antibody, V domains shown)
VH: B1 VH with A56G
VL: B1 VL with Y93F
B25: SA301a LC-T96Y (antibody, V domains shown)
VH: B1 VH with A56G
VL: B1 VL with T95Y
B26: SA301a LC-T96P (antibody, V domains shown)
VH: B1 VH with A56G
VL: B1 VL with T95P
B27: SA301a LC-T96I (antibody, V domains shown)
VH: B1 VH with A56G
VL: B1 VL with T95I
B28: SA301a LC-T96V (antibody, V domains shown)
VH: B1 VH with A56G
VL: B1 VL with T95V
B29: SA301a LC-T96D (antibody, V domains shown)
VH: B1 VH with A56G
VL: B1 VL with T95D
B30: SA301a LC-T96M (antibody, V domains shown)
VH: B1 VH with A56G
VL: B1 VL with T95M
B31: SA301a LC-Y94N (antibody, V domains shown)
VH: B1 VH with A56G
VL: B1 VL with Y93N
B32: SA301a LC-Y94A (antibody, V domains shown)
VH: B1 VH with A56G
VL: B1 VL with Y93A
B33: SA301a LC-Y94L (antibody, V domains shown)
VH: B1 VH with A56G
VL: B1 VL with Y93L
B34: SA301a LC-P95K (antibody, V domains shown)
VH: B1 VH with A56G
VL: B1 VL with P94K
B35: SA301a LC-T96E (antibody, V domains shown)
VH: B1 VH with A56G
VL: B1 VL with T95E
B36: SA301a LC-T96A (antibody, V domains shown)
VH: B1 VH with A56G
VL: B1 VL with T95A
B37: SA301a LC-P95Y (antibody, V domains shown)
VH: B1 VH with A56G
VL: B1 VL with P94Y
B38: SA301a LC-Y94I (antibody, V domains shown)
VH: B1 VH with A56G
VL: B1 VL with Y93I
B39: SA301a LC-Y94R (antibody, V domains shown)
VH: B1 VH with A56G
VL: B1 VL with Y93R
B40: SA301a LC-Y94S (antibody, V domains shown)
VH: B1 VH with A56G
VL: B1 VL with Y93S
B41: SA301a LC-P95N (antibody, V domains shown)
VH: B1 VH with A56G
VL: B1 VL with P94N
B42: SA301a LC-P95L (antibody, V domains shown)
VH: B1 VH with A56G
VL: B1 VL with P94L
B43: SA301a LC-T96K (antibody, V domains shown)
VH: B1 VH with A56G
VL: B1 VL with T95K
B44: SA301a LC-P95E (antibody, V domains shown)
VH: B1 VH with A56G
VL: B1 VL with P94E

Substitutions are numbered along the chain they refer to. Numbers in names are those of the source.

The first assay addresses T1, human IL-18BP. In words: BLI, apparent KD. In general terms: In BLI a coated tip is dipped into the sample, and binding shifts an interference pattern.
Turning to B1, the Kd was found to be 0.75 nM.
The same measure, in the same setting: then B2, with 4.39 nM; and B3, with 0.79 nM.
Same read-out and setting: then B4, with 0.4 nM; and B5, with 1 nM.
In the case of B6, the Kd is 2.33 nM.
Turning to B7, the Kd was determined as 0.75 nM.
The same measure, in the same setting: then B8, with 1.72 nM; and B9, with 0.51 nM; and B10, with 0.64 nM.
On the same count and under the same terms, then B11, with 0.84 nM; and B12, with 0.44 nM; and B13, with 1.31 nM.
Still for that read-out and setting: the figure for B14 is 2.5 nM.
Turning to B15, the Kd turned out to be 1.37 nM.
Same read-out and setting: then B16, with 1.04 nM.
For B17, the Kd is 1.17 nM.
On the same count and under the same terms, then B18, with 4.51 nM.

A further assay addresses T1, human IL-18BP. In words: BLI, apparent KD. This is another data set of the same source.
Turning to B19, the Kd worked out at 0.12 nM.
The same measure, in the same setting: then B20, with 2.35 nM; and B21, with 1.93 nM.
Regarding B22, the Kd worked out at 0.26 nM.
Same read-out and setting: then B23, with 2.01 nM.
The same measure, in the same setting: then B24, with 0.13 nM; and B25, with 0.22 nM.
On the same count and under the same terms, then B26, with 0.26 nM.
Consider B27, for which the Kd is 0.12 nM.
Still for that read-out and setting: the figure for B28 is 0.21 nM.
Same read-out and setting: then B29, with 0.13 nM; and B30, with 0.19 nM.
Still for that read-out and setting: then B31, with 0.22 nM; and B32, with 1.15 nM; and B33, with 0.16 nM.
With B34, the Kd was found to be 0.22 nM.
On the same count and under the same terms, the figure for B35 is 0.31 nM; for B36 it is 0.17 nM; for B37 it is 0.82 nM.
For the molecule B38, the Kd came to 1.27 nM.
As for B39, the Kd is 0.29 nM.
Same read-out and setting: then B40, with 0.63 nM.
Still for that read-out and setting: the figure for B41 is 0.32 nM; for B42 it is 2.18 nM.
With B43, the Kd was found to be 0.05 nM.
Turning to B44, the Kd is 0.44 nM.

These data come from patent US20250368745A1 (published 2025).
